Laboratory results reported in the nanobody polyreactivity screen of Harvey et al. (2022).

assay: yeast display, Sf9 membrane polyspecificity reagent, FACS + sequencing; frameworks hold sequencing errors
In short: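 Galactose-induced (36–48 hours) yeast carrying a synthetic nanobody display library were exposed to 10% biotinylated, detergent-solubilized Sf9 membrane reagent at 4 °C for 1 hour. FACS followed streptavidin microbead enrichment, using low and high (top ~1%) gates for expression (anti-HA) and reagent binding (streptavidin). Colony PCR, MiSeq 2 × 250 sequencing and CDR-length filtering followed. Labels for polyreactivity reflect the gate of origin.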

Sequence	polyreactivity (PSR sort gate)
QVQLVESGGGLVQAGGSLRLSCAASGRIFDFNAMGWYRQAPGKEREFVAAIRTSGGDSTYYADSVKGRFTISRDNEKNTVYLQMNSLKPEDTAVYYCAKTVWWYYRYPFDYWGQGTQVTVSS	low polyreactivity
QVQLVESGGGLVQAGGSLRLSCAASGRIFDGYAMGWYRQAPGKERELVAAISSRGGRTYYADSVKGRFTISRDNAKNTVYLQMNSLKPEDTAVYYCAADDPYGEGDYWGQGTQVTVSS	low polyreactivity
QVQLVESGGGLVQAGGSLRLSCAASGRIFDHYAMGSYRQAPGKERELVAAISGGGDSTYYAYSVKGRFTISRDNAKNTVYLQMNSLKPEDTAVFYCAADFYVYWGNYAQDYYYWGQGTQVTVSS	high polyreactivity
QVQLVESGGGLVQAGGSLRLSCAASGRIFDIYAMGWYRPAPRKERELVAAITRRGGTTYADSVKGRFTISRDNAKNTVYLQMNSLKPEVNAVYYCAAGLYFRKWYSWTRYEYWGQGTQVTVSS	high polyreactivity
QVQLVESGGGLVQAGGSLRLSCAASGRIFDIYTMGWYRQAPGNERELVASITKRGGSTYYADSVKGRFTISRDNAKNTVYLQMNSLKPEDTAVYYCNVAGKQKPYYVTTRLDYWGQGTQVTVSS	high polyreactivity
QVQLVESGGGLVQAGGSLRLSCAASGRIFDLNAMGWYRQAPGKERELVAVITGSGGSTYYADSVKGRFTISRDNAKNTVYLQMNSLKPEDTAVYYCNAYTQQYRSYGYWGQGTQVTVSS	low polyreactivity
QVQLVESGGGLVQAGGSLRLSCAASGRIFDLYTMGWYRQAPGKERELVAAIRWSDGSTYYADSVTGRFTISRDNAKNTVYLQMNSLKPEDTAVYYCAADTRTSYYNDDYDYWGQGTQVTVSS	low polyreactivity
QVQLVESGGGLVQAGGSLRLSCAASGRIFDLYTMGWYRQAPGKERELVAAITSSGDSTYYADSVKGRFTISRDNAKNTVYLQMNSLKPEDTAVYYCAAESKYWEPWWYYYYDMDYWGQGTQVTVSS	low polyreactivity
QVQLVESGGGLVQAGGSLRLSCAASGRIFDNYAMGWYRQAPGKERELVAAITYIDSGTYYADSVKGRFTISRDNAKNTVYLQMNSLKPEDTAVYYCAVRLNSDSKRKTQKFGYWGQGTQVTVSS	low polyreactivity
QVQLVESGGGLVQAGGSLRLSCAASGRIFDNYAMGWYRQAPGKERELVAAITYIDSGTYYADSVKGRFTISRDNAKNTVYLQMNSLKPEDTAVYYCAVRLNSDSKRKTQKYGYWGQGTQVTVSS	low polyreactivity
QVQLVESGGGLVQAGGSLRLSCAASGRIFDPNAMGWYRQAPGKERELVARIRWWSDGSTYYADSVKGRFTISRDNAKNTVYLQMNSLKPEDTAVYYCATTANRVYGYAPWFGPRSEYWGQGTQVTVSS	high polyreactivity
QVQLVESGGGLVQAGGSLRLSCAASGRIFDRNAMGWSRQAPGKERELVAAITRSGGRTYYADSVKGRFTISRDNAKYTVYLQMNSLKPEDTAVYYCNRGYPRSVVHYNSWGQGTQVTVSS	high polyreactivity
QVQLVESGGGLVQAGGSLRLSCAASGRIFDRYAMGWYRLAPGKERELVAAITTSSGGSTYYADSVKGRFTISRDNAMNTVYLQMQSLNPEDTAVYYCAADRRYNVIGEFGYWGQVTQVTVSS	low polyreactivity
QVQLVESGGGLVQAGGSLRLSCAASGRIFDRYVMGWYRQAPVKERALVAAISDGGSTYYADSVKGRFTISRDNAKNTVYLQMISLKPEDTAVYYCNAAFYPNENYYLIYDYWGQGTQVTVSS	low polyreactivity
QVQLVESGGGLVQAGGSLRLSCAASGRIFDSNAMGWYRQAPGKERELVATISYRGGRTYYADSVKGRFTISRDNAKNTVYLQMNSLKPEDTAVYYCAVRYWVSGFRAGYYWGQGTQVTVSS	high polyreactivity
QVQLVESGGGLVQAGGSLRLSCAASGRIFDTYAMGWDRPAPRKERELVAAINSGGRTYYADSVKGRFTISRDNAKNTVYVQMNSLKPEDTAVYYCAAYITYSYGRYGSWGQGTQVTVSS	high polyreactivity

Sequence	polyreactivity (PSR sort gate)
QVQLVESGGGLVQAGGSLRLSCAASGRIFDTYAMGWYRQAPGKERELVAAITRRGGSTYYADSVKGRFTISRDNAKNTVYLQMNSLKPEDSAVYYCAKSLVNRHYDYWGQGTQVTVSS	low polyreactivity
QVQLVESGGGLVQAGGSLRLSCAASGRIFDVNDMGCYRQAPGKERELVAAITYSGTDTYYADSVKGRITISRDNAKNTVYLQMNSLKPEDTAVYYCAAEFTGWEYIGRDYWGQGTQVTVSS	low polyreactivity
QVQLVESGGGLVQAGGSLRLSCAASGRIFDYNAMGWYRQAPGKERELVAAINSGGSTYADSVKGRFTISRDNAKNTVYLQMNSLKPEDTAVYYCAKSLGQTDWEYDSWGQGTQVTVSS	low polyreactivity
QVQLVESGGGLVQAGGSLRLSCAASGRIFDYNAMGWYRQAPGKERELVAAITKDDGSTYYADSVKGRFTISRDNAKNTVYLQMNSLKPEDTAVYYCAAEFYWTYVDIWYDYWGQGTQVTVSS	low polyreactivity
QVQLVESGGGLVQAGGSLRLSCAASGRIFDYNTMGWSRQAPGKERELVAAITGGTGSTYYADSVKGRFTISRDNAKNTVYLQMNSLKPEDTAVYYCAAGFHKRVTPEILYDYWGQGTQVTVSS	low polyreactivity
QVQLVESGGGLVQAGGSLRLSCAASGRIFDYYAMGWYRQAPGKERELVAAINRGGNTYYADSVKGRFTISRDNAKNTVYLQMNSLKPEETSVYYCNAQWYYLRYRYDYWGQGTQVTVSS	high polyreactivity
QVQLVESGGGLVQAGGSLRLSCAASGRIFDYYAMGWYRQAPGKERELVASISRSGGSTYYADSVKGRFTISRDNAKNTVYLQMNSLKPEDTAVYYCAARRGYYYGRVGYWGQGTQVTVSS	high polyreactivity
QVQLVESGGGLVQAGGSLRLSCAASGRIFDYYTMGGYRQAPGKETELVAAINWSGGSTYYADSVKGRFTISRDNAKNTVYLQMNSLKPEDTAVYYCATLSYGREYGYWGQGTQVTVSS	low polyreactivity
QVQLVESGGGLVQAGGSLRLSCAASGRIFDYYTMGWYRQAPGKERELVAAITWIGGSTYYADSVKGRFTISRDNAKNTVYLQMKSLKPEETAVYYCYAEGTALPYRADTVGGYYYWGQGTQVTVSS	low polyreactivity
QVQLVESGGGLVQAGGSLRLSCAASGRIFEHNAMGWYRQAPGKEREFVAAISSSGGSTYYADSVKGRFTISRDNAKNTVYLQMNSLKPEDTAVYYCNAGSTYYERNYWGQGTQVTVSS	low polyreactivity
QVQLVESGGGLVQAGGSLRLSCAASGRIFEHNTMGWYRQAPGKERELVAAINWRGGSTYYADSVKGRFTISRYNAKNTVYLQMNSLKPEDTAVYYCNKYWWSYSYASGYNYWGQGTQVTVSS	high polyreactivity
QVQLVESGGGLVQAGGSLRLSCAASGRIFEHYAMGWYRQAPGKERELVAAITSSGDSTYYADSVKGRFTISRDNAKNTVYLQMNSLKPEDTAVYYCNAVAYISYLWGYYLSTPYDYWGQGTQVTVSS	high polyreactivity
QVQLVESGGGLVQAGGSLRLSCAASGRIFEHYAMGWYRQAPGKERELVASISSGDRTNYADSVKGRFTISRDNAKNTVYLQMNSLKPEDTAVYYCNALQLYGKGKRVGFGYWGQGTQVTVSS	low polyreactivity
QVQLVESGGGLVQAGGSLRLSCAASGRIFENDMGWYRQAPGKERELVATIRSDGSTNYADSVKGRFTISRDNAKNTVYLQMNSLKPEDTAVYYCAADYLGPDYFFFSNYPYDYWGQGTQVTVSS	low polyreactivity
QVQLVESGGGLVQAGGSLRLSCAASGRIFEPYTMGWYRQAPGKEREFVATITASGDSTYYADSVKGRFTISRDNAKNTVYLQMNSLKPEDTAVYYCAAAPFGGYEYDYWGQGTQVTVSS	high polyreactivity
